± gives the uncertainty stated by the source.
Test: self-splicing fitness, log relative to wild type (ln ratio); higher = more splicing; Tetrahymena group I intron in knt gene, E. coli kanamycin selection, DiMSum; sequences stand for … in CUCUCU…GGAGGGAAAAGUUAUCAGGCAUGCACCUGGUAGCUAGUCUUUAAACCAAUAGAUUGCAUCGGUUUAAAAGGCAAGACCGUCAAAUUGCGGGAAAGGGGUCAACAGCCGUUCAGUACCAAGUCUCAGGGGAAACUUUGAGAUGGCCUUGCAAAGGGUAUGGUAAUAAGCUGACGGACAUGGUCCUAACCACGCAGCCAAGUCCUAAGUCAACAGAUCUUCUGUUGAUAUGGAUGCAGUUCACAGACUAAAUGUCGGUCGGGGAAGAUGUAUUCUUCUCAUAAGAUAUAGUCGGACCUCUCCUUAAUGGGAGCUAGCGGAUGAAGUGAUGCAACACUGGAGCCGCUGGGAACUAAUUUGUAUGCGAAAGUAUAUUGAUUAGUUUUGGAGUACUCGUGGUCG
Method in brief: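 The eight P1ex-region nucleotides of an intron in the knt kanamycin-resistance gene on pET-22b(+) were all randomised and the library put into E. coli BL21(DE3). Six replicate transformations were grown overnight at 37°C or 30°C on LB agar with or without 25 μg/mL kanamycin, together with 100 μg/mL carbenicillin, 50 μM IPTG and 0.2% rhamnose. Colonies were pooled and amplicon-sequenced on an Illumina HiSeq 2500. Fitness from DiMSum is the error-weighted combination of wild-type-normalised replicate fold changes, kanamycin over none.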

| Sequence | self-splicing fitness (ln) (30 °C) | self-splicing fitness (ln) (37 °C) |
| --- | --- | --- |
| UGCCAGCAAUAUUACGGAAA | -1.8 ± 0.1 | -0.0875 ± 0.13 |
| UGCCAGCAAUAUUACGGGCG | -3.1 ± 0.16 | -2.73 ± 0.21 |
| UGCCAGCAAUAUUACGUCUA | -0.347 ± 0.081 | -0.671 ± 0.089 |
| UGCCAGCAAUAUUACGUGAA | -1.73 ± 0.09 | -0.422 ± 0.1 |
| UGCCAGCAAUAUUACGUGCC | -1.03 ± 0.095 | 0.0809 ± 0.15 |
| UGCCAGCAAUAUUACGUUAC | -2.48 ± 0.23 | -3.38 ± 0.31 |
| UGCGAGCAAUAUUACGAAAC | -2.99 ± 0.17 | -3.8 ± 0.34 |
| UGCGAGCAAUAUUACGACUU | -2.13 ± 0.43 | -1.7 ± 0.41 |
| UGCGAGCAAUAUUACGAGUU | -3.05 ± 0.14 | -1.35 ± 0.13 |
| UGCGAGCAAUAUUACGAUUU | -3.11 ± 0.37 | -0.802 ± 0.16 |
| UGCGAGCAAUAUUACGCGUU | -3.38 ± 0.27 | -1.39 ± 0.18 |
| UGCGAGCAAUAUUACGCUCA | – | 0.239 ± 0.26 |
| UGCGAGCAAUAUUACGGCGC | -2.34 ± 0.46 | – |
| UGCGAGCAAUAUUACGGUCU | -2.12 ± 0.15 | -1.45 ± 0.25 |
| UGCGAGCAAUAUUACGUCUG | -1.24 ± 0.1 | -1.36 ± 0.13 |
| UGCGAGCAAUAUUACGUGGG | -4.32 ± 0.43 | -2.69 ± 0.23 |
| UGCGAGCAAUAUUACGUGGU | -3.4 ± 0.18 | -2.63 ± 0.21 |
| UGCGAGCAAUAUUACGUGUA | -2.83 ± 0.11 | -1.01 ± 0.1 |
| UGCUAGCAAUAUUACGAAUG | -0.8 ± 0.1 | 0.288 ± 0.16 |
| UGCUAGCAAUAUUACGACAG | -0.698 ± 0.059 | 0.337 ± 0.093 |
| UGCUAGCAAUAUUACGACCG | -0.534 ± 0.17 | -0.458 ± 0.19 |
| UGCUAGCAAUAUUACGACGA | -0.229 ± 0.13 | 0.191 ± 0.12 |
| UGCUAGCAAUAUUACGAGCC | -0.0254 ± 0.11 | -0.681 ± 0.2 |
| UGCUAGCAAUAUUACGAUAU | -2.3 ± 0.23 | -2.25 ± 0.21 |
| UGCUAGCAAUAUUACGCAAG | -3.87 ± 0.33 | -3.11 ± 0.25 |

| Sequence | self-splicing fitness (ln) (30 °C) | self-splicing fitness (ln) (37 °C) |
| --- | --- | --- |
| UGCUAGCAAUAUUACGCAGU | -3.21 ± 0.31 | -2.51 ± 0.43 |
| UGCUAGCAAUAUUACGCAUU | -3.79 ± 0.39 | -1.85 ± 0.34 |
| UGCUAGCAAUAUUACGCCCG | -0.583 ± 0.19 | 0.807 ± 0.3 |
| UGCUAGCAAUAUUACGCGAA | -2.97 ± 0.32 | -1.88 ± 0.21 |
| UGCUAGCAAUAUUACGCGAC | -2.66 ± 0.26 | -1.58 ± 0.3 |
| UGCUAGCAAUAUUACGCGGA | -2.16 ± 0.12 | -1.24 ± 0.12 |
| UGCUAGCAAUAUUACGCUGG | -3.07 ± 0.23 | -2.25 ± 0.32 |
| UGCUAGCAAUAUUACGGAAG | -3.4 ± 0.35 | -2.31 ± 0.39 |
| UGCUAGCAAUAUUACGGAUC | – | -0.421 ± 0.19 |
| UGCUAGCAAUAUUACGGCUC | -1.4 ± 0.2 | -1.33 ± 0.23 |
| UGCUAGCAAUAUUACGUAUC | – | -2.07 ± 0.38 |
| UGCUAGCAAUAUUACGUAUG | -1.1 ± 0.067 | -0.309 ± 0.089 |
| UGCUAGCAAUAUUACGUCAU | -2.72 ± 0.24 | -2.61 ± 0.22 |
| UGCUAGCAAUAUUACGUCGG | -2.68 ± 0.25 | -0.202 ± 0.23 |
| UGCUAGCAAUAUUACGUCUC | -3.59 ± 0.16 | -2.91 ± 0.2 |
| UGCUAGCAAUAUUACGUCUU | -1.85 ± 0.093 | -0.906 ± 0.088 |
| UGCUAGCAAUAUUACGUUCU | -0.686 ± 0.092 | -0.861 ± 0.12 |
| UGGAAGCAAUAUUACGACGC | -1.66 ± 0.22 | -1.05 ± 0.28 |
| UGGAAGCAAUAUUACGAUAA | -1.6 ± 0.12 | -0.36 ± 0.15 |
| UGGAAGCAAUAUUACGCAGC | -2.22 ± 0.42 | -2.6 ± 0.26 |
| UGGAAGCAAUAUUACGCCAG | -1.55 ± 0.18 | 0.0553 ± 0.21 |
| UGGAAGCAAUAUUACGCGUG | -0.258 ± 0.091 | -0.135 ± 0.12 |
| UGGAAGCAAUAUUACGCUGC | -3.48 ± 0.32 | -2.15 ± 0.38 |
| UGGAAGCAAUAUUACGGCAG | -1.15 ± 0.16 | -0.772 ± 0.25 |
| UGGAAGCAAUAUUACGGCCG | -0.385 ± 0.18 | -0.0898 ± 0.3 |

| Sequence | self-splicing fitness (ln) (30 °C) | self-splicing fitness (ln) (37 °C) |
| --- | --- | --- |
| UGGAAGCAAUAUUACGGGCA | -0.216 ± 0.083 | -0.335 ± 0.087 |
| UGGAAGCAAUAUUACGGGUU | -2.85 ± 0.18 | -2.38 ± 0.41 |
| UGGAAGCAAUAUUACGGUAG | -1.89 ± 0.12 | -1.82 ± 0.11 |
| UGGAAGCAAUAUUACGUAAG | -1.07 ± 0.12 | -0.81 ± 0.13 |
| UGGAAGCAAUAUUACGUACA | -0.926 ± 0.1 | 0.227 ± 0.11 |
| UGGAAGCAAUAUUACGUCGG | -0.128 ± 0.11 | -0.162 ± 0.11 |
| UGGAAGCAAUAUUACGUGUG | -1.06 ± 0.073 | -0.706 ± 0.091 |
| UGGAAGCAAUAUUACGUUAU | -2.23 ± 0.14 | -3.09 ± 0.2 |
| UGGAAGCAAUAUUACGUUCG | 0.201 ± 0.087 | -0.347 ± 0.096 |
| UGGCAGCAAUAUUACGAAUA | -1.36 ± 0.12 | -0.17 ± 0.13 |
| UGGCAGCAAUAUUACGAGAG | -2.95 ± 0.21 | -2.74 ± 0.29 |
| UGGCAGCAAUAUUACGAGCC | -2.1 ± 0.29 | -2.37 ± 0.44 |
| UGGCAGCAAUAUUACGAUCA | -0.413 ± 0.14 | -0.198 ± 0.12 |
| UGGCAGCAAUAUUACGCAAA | -1.87 ± 0.23 | -0.513 ± 0.26 |
| UGGCAGCAAUAUUACGCAGU | -4.13 ± 0.36 | -2.57 ± 0.21 |
| UGGCAGCAAUAUUACGCAUU | -1.05 ± 0.097 | -0.267 ± 0.089 |
| UGGCAGCAAUAUUACGCGAA | -0.273 ± 0.088 | -0.139 ± 0.1 |
| UGGCAGCAAUAUUACGCGUU | -1.6 ± 0.077 | -0.555 ± 0.081 |
| UGGCAGCAAUAUUACGGAAU | -2.54 ± 0.12 | -1.22 ± 0.17 |
| UGGCAGCAAUAUUACGGACG | 0.0917 ± 0.19 | 0.916 ± 0.24 |
| UGGCAGCAAUAUUACGGAGU | -2.61 ± 0.17 | -3.96 ± 0.31 |
| UGGCAGCAAUAUUACGGCCU | -1.91 ± 0.18 | -1.57 ± 0.18 |
| UGGCAGCAAUAUUACGGGAA | -2.17 ± 0.13 | -0.784 ± 0.1 |
| UGGCAGCAAUAUUACGGUAG | -0.874 ± 0.062 | -0.684 ± 0.084 |
| UGGCAGCAAUAUUACGGUCC | -0.382 ± 0.16 | 0.88 ± 0.13 |

| Sequence | self-splicing fitness (ln) (30 °C) | self-splicing fitness (ln) (37 °C) |
| --- | --- | --- |
| UGGCAGCAAUAUUACGUAAA | -0.723 ± 0.077 | -0.922 ± 0.093 |
| UGGCAGCAAUAUUACGUACA | 0.117 ± 0.071 | 0.116 ± 0.1 |
| UGGCAGCAAUAUUACGUAUC | -3.85 ± 0.31 | -1.82 ± 0.25 |
| UGGCAGCAAUAUUACGUCAG | -0.12 ± 0.074 | -0.817 ± 0.11 |
| UGGCAGCAAUAUUACGUCUC | -1.64 ± 0.11 | -0.21 ± 0.13 |
| UGGCAGCAAUAUUACGUUGC | -3.77 ± 0.19 | -2.37 ± 0.13 |
| UGGGAGCAAUAUUACGAGUG | -2.24 ± 0.31 | -0.927 ± 0.28 |
| UGGGAGCAAUAUUACGCAUC | -3 ± 0.32 | -2.58 ± 0.38 |
| UGGGAGCAAUAUUACGCGGA | – | -2.73 ± 0.34 |
| UGGGAGCAAUAUUACGCUAG | -2.79 ± 0.32 | -1.99 ± 0.36 |
| UGGGAGCAAUAUUACGGCAU | – | -2.47 ± 0.45 |
| UGGGAGCAAUAUUACGUAAG | -0.459 ± 0.15 | -1.12 ± 0.2 |
| UGGGAGCAAUAUUACGUACU | – | -2.02 ± 0.33 |
| UGGGAGCAAUAUUACGUCUA | -1.22 ± 0.12 | -0.187 ± 0.16 |
| UGGGAGCAAUAUUACGUCUC | -3.13 ± 0.32 | -2.93 ± 0.44 |
| UGGGAGCAAUAUUACGUGUG | -1.75 ± 0.22 | -2.26 ± 0.33 |
| UGGGAGCAAUAUUACGUUUG | -3.75 ± 0.27 | -2.14 ± 0.27 |
| UGGUAGCAAUAUUACGACGC | – | 1.38 ± 0.5 |
| UGGUAGCAAUAUUACGCAGA | -2.45 ± 0.16 | -0.684 ± 0.1 |
| UGGUAGCAAUAUUACGCAUA | -1.11 ± 0.22 | -0.547 ± 0.17 |
| UGGUAGCAAUAUUACGCCAA | -1.77 ± 0.15 | -0.723 ± 0.12 |
| UGGUAGCAAUAUUACGCUAU | -4.7 ± 0.42 | -2.87 ± 0.23 |
| UGGUAGCAAUAUUACGGAAU | – | -0.962 ± 0.23 |

Source: the supplement of paper PMC7877785
